{"source": "paper PMC6100724", "about": "“Proteome‐wide analysis of phospho‐regulated PDZ domain interactions” (Molecular Systems Biology, 2018)", "key": {"Scribble PDZ1, 719-829": {"target": "Scribble PDZ1, 719-829 (UniProt Q14160)", "sequence (Q14160 whole entry, looked up, tested part not stated)": "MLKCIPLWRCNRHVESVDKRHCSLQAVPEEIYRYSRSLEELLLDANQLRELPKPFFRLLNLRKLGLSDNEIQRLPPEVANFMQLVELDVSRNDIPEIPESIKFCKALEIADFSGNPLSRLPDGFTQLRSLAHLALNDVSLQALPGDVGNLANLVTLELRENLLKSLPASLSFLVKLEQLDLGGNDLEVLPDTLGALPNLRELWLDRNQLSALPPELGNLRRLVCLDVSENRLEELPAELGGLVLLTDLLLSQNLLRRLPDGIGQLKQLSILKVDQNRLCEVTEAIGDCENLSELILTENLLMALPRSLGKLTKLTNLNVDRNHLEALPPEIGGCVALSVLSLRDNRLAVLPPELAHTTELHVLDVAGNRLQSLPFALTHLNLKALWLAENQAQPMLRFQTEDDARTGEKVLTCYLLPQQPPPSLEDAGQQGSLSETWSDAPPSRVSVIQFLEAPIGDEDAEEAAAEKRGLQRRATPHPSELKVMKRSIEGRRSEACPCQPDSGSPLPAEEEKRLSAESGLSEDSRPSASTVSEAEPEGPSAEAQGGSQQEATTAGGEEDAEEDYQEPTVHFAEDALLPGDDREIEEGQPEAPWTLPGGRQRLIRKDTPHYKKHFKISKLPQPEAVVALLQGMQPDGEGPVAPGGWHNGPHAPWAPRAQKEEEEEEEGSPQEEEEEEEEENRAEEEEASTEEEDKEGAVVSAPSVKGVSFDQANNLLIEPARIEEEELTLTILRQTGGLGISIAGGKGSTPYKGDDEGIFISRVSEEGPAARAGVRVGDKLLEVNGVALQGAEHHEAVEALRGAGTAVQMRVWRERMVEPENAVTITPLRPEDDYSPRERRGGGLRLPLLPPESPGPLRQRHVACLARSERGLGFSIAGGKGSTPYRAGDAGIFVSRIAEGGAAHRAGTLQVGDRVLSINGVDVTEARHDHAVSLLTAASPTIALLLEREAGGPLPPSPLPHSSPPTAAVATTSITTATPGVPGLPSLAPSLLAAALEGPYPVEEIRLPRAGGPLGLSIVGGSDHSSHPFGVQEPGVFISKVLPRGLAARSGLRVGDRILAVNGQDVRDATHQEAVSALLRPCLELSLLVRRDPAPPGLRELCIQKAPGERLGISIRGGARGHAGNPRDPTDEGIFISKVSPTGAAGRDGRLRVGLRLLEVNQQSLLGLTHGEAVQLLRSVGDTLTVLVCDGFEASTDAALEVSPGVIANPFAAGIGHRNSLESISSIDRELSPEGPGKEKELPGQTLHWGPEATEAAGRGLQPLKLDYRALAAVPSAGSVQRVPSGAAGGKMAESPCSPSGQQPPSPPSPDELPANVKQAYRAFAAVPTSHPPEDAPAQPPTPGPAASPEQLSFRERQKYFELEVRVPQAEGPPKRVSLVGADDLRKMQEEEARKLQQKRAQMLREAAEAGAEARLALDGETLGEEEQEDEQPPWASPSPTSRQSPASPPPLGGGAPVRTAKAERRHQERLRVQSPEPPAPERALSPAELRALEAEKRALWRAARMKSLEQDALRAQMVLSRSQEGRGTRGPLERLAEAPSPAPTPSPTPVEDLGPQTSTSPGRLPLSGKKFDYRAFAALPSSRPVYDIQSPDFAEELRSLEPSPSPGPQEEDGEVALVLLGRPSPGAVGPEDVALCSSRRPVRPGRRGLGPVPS", "assay": "ITC", "conditions": "reference: unphosphorylated …; sites S730"}, "[1]": {"target": "Scribble PDZ1 (human, aa 719-829) (human) (UniProt Q14160)", "sequence (Q14160 719-829)": "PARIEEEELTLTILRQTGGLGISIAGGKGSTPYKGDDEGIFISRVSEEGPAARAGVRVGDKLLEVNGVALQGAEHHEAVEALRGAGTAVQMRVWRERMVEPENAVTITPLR", "assay": "ITC; iTC200, 25°C, 20 mM HEPES pH 7.4; protein 50-100 µM in the cell, 0.64-3 mM peptide in the syringe; single-site fit, stoichiometry fixed to 0.8-1.1; triplicate"}, "[2]": {"target": "FITC-HTNETEL, phosphomimetic (p-1) MCC peptide (human)", "assay": "MST; FITC-labeled peptide fixed at 25-50 nM, DLG1 PDZ2 titrated (1:1 dilution series); 50 mM Tris-HCl pH 7.4, 0.1% Tween-20; KD from thermophoresis and T-Jump signal; n = 3"}, "[3]": {"target": "FITC-…, phosphomimetic (p-6) TANC1 peptide (human)", "assay": "MST; FITC-labeled peptide fixed at 25-50 nM, DLG1 PDZ2 titrated (1:1 dilution series); 50 mM Tris-HCl pH 7.4, 0.1% Tween-20; KD from thermophoresis and T-Jump signal; n = 3"}}, "data": [{"substance": "RPS6KA2 C-terminal 9 residues (from UniProt Q15349) MKRLTpSTRL", "values": [{"measurement": "fold change", "setting": "Scribble PDZ1, 719-829", "value": "stronger"}]}, {"substance": "MAPK12 peptide … (unphosphorylated)", "values": [{"measurement": "Kd", "setting": "[1]", "value": 1.2, "unit": "µM"}]}, {"substance": "DLG1 PDZ2 (human DLG1 PDZ2 aa 311-407) (from UniProt Q12959 311-407) (domain or fragment)", "values": [{"measurement": "Kd", "setting": "[2]", "value": 21, "unit": "µM"}, {"measurement": "Kd", "setting": "[3]", "value": 5.1, "unit": "µM"}]}]}
